Reference: publication PMC4428356, “Endophilin-A1 BAR domain interaction with arachidonyl CoA” (Frontiers in Molecular Biosciences, 2014)
Values joined by “and” are separate entries in the source; they are usually repeats but may differ in a detail not shown here. Equal values may be shown once.

Key:
[1] = target: the molecule itself; experiment: SAXS; free endophilin-A1-BAR at 2 mg/ml in buffer B (20 mM Bicine pH 9, 100 mM NaCl), 283 K; monodisperse; mass from forward scattering, Porod volume, fit with the crystallographic dimer
[2] = target: the molecule itself; experiment: SAXS; free endophilin-A1-BAR at 3, 4 and 6 mg/ml in buffer B (20 mM Bicine pH 9, 100 mM NaCl), 283 K; volume fractions of dimer, tetramer and a putative helical octamer fitted with OLIGOMER

B1: Endophilin-A1-BAR (residues 1-256 of mouse endophilin-A1) (domain or fragment, UniProt Q62420 1-256, looked up)
chain: MSVAGLKKQFHKATQKVSEKVGGAEGTKLDDDFKEMERKVDVTSRAVMEIMTKTIEYLQPNPASRAKLSMINTMSKIRGQEKGPGYPQAEALLAEAMLKFGRELGDDCNFGPALGEVGEAMRELSEVKDSLDMEVKQNFIDPLQNLHDKDLREIQHHLKKLEGRRLDFDYKKKRQGKIPDEELRQALEKFDESKEIAESSMFNLLEMDIEQVSQLSALVQAQLEYHKQAVQILQQVTVRLEERIRQASSQPRREYQ
notes: endophilin-A1, mouse, residues 1-256 (BAR domain with the N-terminal amphipathic helix); calculated mass of the monomer 29 kDa; Dimeric at 2 mg/ml, higher oligomers at higher concentrations; also called endophilin-A1 BAR domain; source: E. coli BL21 codon plus, purified (Ni-chelating sepharose, Superdex 200 gel filtration)
stoichiometry N [1]: 2 | stoichiometry N [2]: 4 and 8
